We go through 14 sequences from the Immune Epitope Database (IEDB).

Where only a bound is given, the exact number is not on record here.

The target of assay [1] is HLA-B*44:02. Nature of the assay: IEDB peptide-MHC binding, purified MHC/competitive/radioactivity; filed as Kd, often an IC50 or EC50 that approximates it; ≥ and ≤ were set here for values at or beyond the usual limits of such assays.
The target of another assay is HLA-B*45:01. The assay is described as above.
The target of another assay is HLA-B*40:02. The description is as above.
In a further assay the target is HLA-B*44:03. The description is as above.
Assay [2] deals with HLA-B*18:01. The description is as above.
Assay [3] addresses HLA-B*40:01. The description is as above.
Assay [4] has as its target HLA-B*44:02. In words: IEDB peptide-MHC binding, purified MHC/direct/fluorescence; filed as Kd, often an IC50 or EC50 that approximates it; ≥ and ≤ were set here for values at or beyond the usual limits of such assays.
For another assay, the target named is HLA-A*24:02. Described as above.
The target of another assay is HLA-B*07:02. Described as above.
Another assay addresses HLA-B*27:05. The description is as above.
The target in the next assay is HLA-B*15:01. Described as above.
For the next assay, the target named is HLA-B*15:09. The assay is described as above.
For the next assay, the target named is HLA-A*69:01. Described as above.
The target of another assay is HLA-B*58:01. The description is as above.
The target in a further assay is HLA-B*46:01. The description is as above.
The target of assay [5] is HLA-B*18:01. The description is as above.
Assay [6] deals with HLA-B*40:01. Described as above.
A further assay has as its target HLA-A*02:01. The description is as above.
In the next assay the target is HLA-A*24:03. The assay is described as above. The following applies: source organism: Influenza A virus (A/camel/Mongolia/1982(H1N1)).
A further assay deals with HLA-A*03:01. Described as above.
A further assay concerns the target HLA-B*08:01. The assay is described as above.
Another assay has as its target HLA-A*01:01. The assay is described as above.
A further assay addresses HLA-A*31:01. The assay is described as above.
In a further assay the target is HLA-B*08:02. The assay is described as above.
Another assay deals with HLA-A*11:01. The assay is described as above.
A further assay deals with HLA-A*26:01. The assay is described as above.
The mark [7] stands for this setting: source organism: SARS coronavirus Tor2.
Setting [8] is: source organism: Mammarenavirus juninense.
Where [9] appears, read: source organism: Lymphocytic choriomeningitis virus (strain Armstrong).
Setting [10] is: source organism: Influenza A virus (A/camel/Mongolia/1982(H1N1)).
The mark [11] stands for this setting: source organism: Influenza A virus (A/Puerto Rico/8/34/Mount Sinai(H1N1)).
The mark [12] stands for this setting: source organism: Mammarenavirus lassaense.
The mark [13] stands for this setting: source organism: Giardia lamblia ATCC 50803.
The mark [14] stands for this setting: source organism: Influenza A virus (A/mallard/NZ/1/97(H5N2)).
Where [15] appears, read: source organism: Influenza A virus(A/swine/Shandong/fZC/2003(H9N2)).
Setting [16] is: source organism: Influenza A virus (A/chicken/Hubei/wk/1997(H5N1)).
Setting [17] is: source organism: Influenza A virus(A/swine/Shandong/fNY/2003(H9N2)).
Where [18] appears, read: source organism: Vibrio parahaemolyticus.
[19] abbreviates: source organism: Vibrio vulnificus CMCP6.

Usually Kd stands for the constant that tells how readily two partners part at equilibrium. For PEFYEAMYT, the dissociation constant (Kd) with HLA-B*44:02 [1] (setting [7]) was 17.4 µM; in the assay with HLA-B*45:01 (setting [7]), 3.4 µM; with HLA-B*40:02 (setting [7]), 5.05 µM; in the assay with HLA-B*44:03 (setting [7]), 4.91 µM; in the assay with HLA-B*18:01 [2] (setting [7]), at least 52.4 µM; in the assay with HLA-B*40:01 [3] (setting [7]) it was 3.74 µM.
For the sequence AEAAVKPLLA, the equilibrium dissociation constant (Kd) with HLA-B*44:02 [1] (setting [7]) is 0.105 µM; with HLA-B*45:01 (setting [7]), 0.0106 µM; with HLA-B*40:02 (setting [7]) it was at least 20.1 µM; in the assay with HLA-B*44:03 (setting [7]) it was 0.0356 µM; with HLA-B*18:01 [2] (setting [7]), at least 55.5 µM; with HLA-B*40:01 [3] (setting [7]), 0.164 µM.
Regarding KDTPGGYCL, the Kd in the assay with HLA-B*44:02 [1] (setting [8]) is at least 77.9 µM; in the assay with HLA-B*45:01 (setting [8]) it was 18.3 µM; with HLA-B*40:02 (setting [8]), 3.48 µM; with HLA-B*44:03 (setting [8]), at least 78.1 µM; in the assay with HLA-B*18:01 [2] (setting [8]), at least 61 µM; with HLA-B*40:01 [3] (setting [8]) it was 11.9 µM.
Consider AEYKLQQGTF, for which the dissociation constant (Kd) turned out to be 0.0288 µM with HLA-B*44:02 [1] (setting [7]); 0.0623 µM with HLA-B*45:01 (setting [7]); 0.02 µM with HLA-B*40:02 (setting [7]); 0.0896 µM in the assay with HLA-B*44:03 (setting [7]); 7.04 µM in the assay with HLA-B*18:01 [2] (setting [7]); 4.58 µM in the assay with HLA-B*40:01 [3] (setting [7]).
IEVALRTLL: the Kd amounted to 14.6 µM in the assay with HLA-B*44:02 [1] (setting [9]); 18.3 µM with HLA-B*45:01 (setting [9]); 0.0549 µM in the assay with HLA-B*40:02 (setting [9]); 3.73 µM with HLA-B*44:03 (setting [9]); 0.0772 µM in the assay with HLA-B*18:01 [2] (setting [9]); 0.0644 µM with HLA-B*40:01 [3] (setting [9]).
For the sequence AEWVLAYML, the dissociation constant (Kd) with HLA-B*44:02 [1] (setting [7]) was determined as 0.0139 µM; with HLA-B*45:01 (setting [7]) it was 0.0365 µM; with HLA-B*40:02 (setting [7]), 0.00402 µM; with HLA-B*44:03 (setting [7]), 0.00504 µM; with HLA-B*18:01 [2] (setting [7]) it was 0.418 µM; with HLA-B*40:01 [3] (setting [7]) it was 0.00475 µM.
With KFFPSSSYR, the Kd with HLA-B*44:02 [4] (setting [10]), with HLA-A*24:02 (setting [10]), with HLA-B*07:02 (setting [10]), in the assay with HLA-B*27:05 (setting [10]), in the assay with HLA-B*15:01 (setting [10]) and with HLA-B*15:09 (source organism: Influenza A virus H3N2) was at least 20 µM in each case. For the same sequence, the Kd with HLA-A*69:01 (setting [10]), in the assay with HLA-B*58:01 (setting [10]), with HLA-B*46:01 (setting [10]), in the assay with HLA-B*18:01 [5] (setting [10]), with HLA-B*40:01 [6] (setting [10]) and with HLA-A*02:01 (setting [10]) was at least 20 µM throughout. The Kd was at least 20 µM with HLA-A*24:03, 0.184 µM with HLA-A*03:01 (setting [11]), at least 20 µM with HLA-B*08:01 (setting [10]) and at least 20 µM in the assay with HLA-A*01:01 (setting [10]).
As to SDLDMLTQS, the Kd was at least 42.2 µM in the assay with HLA-B*44:02 [1] (setting [12]); at least 77.7 µM with HLA-B*45:01 (setting [12]); 6.1 µM with HLA-B*40:02 (setting [12]); at least 78.1 µM in the assay with HLA-B*44:03 (setting [12]); at least 77.5 µM with HLA-B*18:01 [2] (setting [12]); at least 24.7 µM in the assay with HLA-B*40:01 [3] (setting [12]).
In the case of YIASIFMPR, the equilibrium dissociation constant (Kd) with HLA-B*44:02 [4] (setting [13]) was at least 20 µM; with HLA-A*24:02 (setting [13]), at least 20 µM; with HLA-B*07:02 (setting [13]), at least 20 µM; with HLA-A*31:01 (setting [13]), 0.011 µM; with HLA-B*27:05 (setting [13]), at least 20 µM; with HLA-B*08:02 (setting [13]), at least 20 µM. For the same sequence, the Kd with HLA-B*15:01 (setting [13]), with HLA-B*15:09 (setting [13]), with HLA-A*69:01 (setting [13]), in the assay with HLA-B*58:01 (setting [13]), with HLA-B*18:01 [5] (setting [13]) and with HLA-B*40:01 [6] (setting [13]) was at least 20 µM each time. For the same sequence, the Kd with HLA-A*03:01 (setting [13]) is 0.335 µM; with HLA-A*01:01 (setting [13]), at least 20 µM; with HLA-A*11:01 (setting [13]), 0.0448 µM.
With IAGFIEGGW, the Kd in the assay with HLA-B*44:02 [4] (setting [14]), in the assay with HLA-A*24:02 (setting [14]), with HLA-B*07:02 (setting [14]), in the assay with HLA-A*31:01 (setting [14]), with HLA-A*26:01 (setting [15]) and in the assay with HLA-B*27:05 (setting [14]) was at least 20 µM throughout. For the same sequence, the Kd with HLA-B*08:02 (setting [15]) is at least 20 µM; with HLA-B*15:01 (setting [14]) it was at least 20 µM; with HLA-B*15:09 (setting [15]), at least 20 µM; in the assay with HLA-A*69:01 (setting [14]) it was at least 20 µM; with HLA-B*58:01 (setting [14]), 0.0654 µM; in the assay with HLA-B*46:01 (setting [14]) it was at least 20 µM. In addition, the dissociation constant (Kd) with HLA-B*40:01 [6] (setting [14]), in the assay with HLA-A*02:01 (setting [14]), in the assay with HLA-A*03:01 (setting [14]), with HLA-B*08:01 (setting [14]), with HLA-A*01:01 (setting [14]) and in the assay with HLA-A*11:01 (setting [14]) was at least 20 µM throughout.
As to EELSMMYESL, the dissociation constant (Kd) in the assay with HLA-B*44:02 [1] (setting [8]) turned out to be 1.48 µM; in the assay with HLA-B*45:01 (setting [8]) it was 1.9 µM; in the assay with HLA-B*40:02 (setting [8]), 0.106 µM; with HLA-B*44:03 (setting [8]), 1.85 µM; with HLA-B*18:01 [2] (setting [8]) it was 1.34 µM; with HLA-B*40:01 [3] (setting [8]), 0.899 µM.
Turning to LESLWAPFGV, the Kd with HLA-B*44:02 [1] (setting [8]) is at least 31.8 µM; with HLA-B*45:01 (setting [8]) it was 16.1 µM; with HLA-B*40:02 (setting [8]) it was 0.159 µM; with HLA-B*44:03 (setting [8]), at least 56.4 µM; in the assay with HLA-B*18:01 [2] (setting [8]) it was 0.607 µM; with HLA-B*40:01 [3] (setting [8]) it was at least 24.6 µM.
Consider NPALRMKWM, for which the equilibrium dissociation constant (Kd) was at least 20 µM with HLA-B*44:02 [4] (setting [16]); at least 20 µM in the assay with HLA-A*24:02 (setting [16]); 0.091 µM in the assay with HLA-B*07:02 (setting [11]); at least 20 µM in the assay with HLA-A*31:01 (setting [16]); at least 20 µM with HLA-A*26:01 (setting [17]); at least 20 µM with HLA-B*27:05 (setting [16]). The dissociation constant Kd with HLA-B*08:02 (setting [17]), with HLA-B*15:01 (setting [16]), with HLA-B*15:09 (setting [17]), with HLA-A*69:01 (setting [16]), with HLA-B*58:01 (setting [16]) and with HLA-B*46:01 (setting [16]) was at least 20 µM throughout. In addition, the equilibrium dissociation constant (Kd) in the assay with HLA-B*18:01 [5] (setting [16]) was at least 20 µM; with HLA-B*40:01 [6] (setting [16]), at least 20 µM; with HLA-A*02:01 (setting [16]) it was at least 20 µM; with HLA-A*03:01 (setting [16]), at least 20 µM; in the assay with HLA-B*08:01 (setting [11]), 1.41 µM; in the assay with HLA-A*01:01 (setting [16]), at least 20 µM. This sequence had a Kd in the assay with HLA-A*11:01 (setting [16]) of at least 20 µM.
For the sequence ASEELMDKY, the dissociation constant (Kd) in the assay with HLA-B*44:02 [4] (setting [18]), with HLA-A*24:02 (setting [18]), in the assay with HLA-B*07:02 (setting [18]), in the assay with HLA-A*31:01 (setting [18]), with HLA-A*26:01 (setting [19]) and with HLA-B*27:05 (setting [18]) was at least 20 µM each time. Moreover, the Kd with HLA-B*08:02 (setting [19]), in the assay with HLA-B*15:01 (setting [18]), with HLA-B*15:09 (setting [19]), with HLA-A*69:01 (setting [18]), with HLA-B*58:01 (setting [18]) and with HLA-B*46:01 (setting [18]) was at least 20 µM throughout. Besides, the Kd in the assay with HLA-B*40:01 [6] (setting [18]) is at least 20 µM; with HLA-A*02:01 (setting [18]) it was at least 20 µM; in the assay with HLA-A*03:01 (setting [18]), at least 20 µM; in the assay with HLA-A*01:01 (setting [18]), 0.0272 µM.
